Data as given in patent US20250277020A1 (Boehringer Ingelheim, published 2025).

T1: Full-length human CTGF (human, UniProt P29279 27-349)
T1 construct: Corresponds to NCBI NP_001892.1 with the signal peptide omitted; purchased from R&D Systems; also called hCTGF full length; full length CTGF
T1 sequence: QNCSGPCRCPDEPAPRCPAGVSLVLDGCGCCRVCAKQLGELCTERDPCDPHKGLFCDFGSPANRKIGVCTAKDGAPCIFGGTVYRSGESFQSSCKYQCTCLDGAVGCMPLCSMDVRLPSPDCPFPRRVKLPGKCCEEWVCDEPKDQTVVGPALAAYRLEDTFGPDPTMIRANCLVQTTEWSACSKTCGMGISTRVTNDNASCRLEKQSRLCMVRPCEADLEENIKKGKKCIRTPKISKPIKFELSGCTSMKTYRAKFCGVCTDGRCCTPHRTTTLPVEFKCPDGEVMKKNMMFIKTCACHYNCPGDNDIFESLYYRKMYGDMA


Biological target: T1, Full-length human CTGF
Experiment: SPR, full length CTGF

Row | binding result | Kd [pM] | Binder
1 |  | 250 | A21 (antibody, human IgG1, kappa, L234A L235A) light: VVMTQTPLSLSVSLGDQASISCKSSQSIVHYNGKTYLEWYLQKPGQSPQLLIYKVSSRFSGVPDRFSGSGSGTDFTLKISRVEAEDLGVYYCFQGSHFPLTFGQGTKLEIKRTVAAPSVFIFPPSDEQLKSGTASVVCLLNNFYPREAKVQWKVDNALQSGNSQESVTEQDSKDSTYSLSSTLTLSKADYEKHKVYACEVTHQGLSSPVTKSFNRGEC heavy: not shown
2 |  | 190 | A18 (antibody, human IgG1, kappa, L234A L235A, V domains shown) VH: EVQLVESGGGLVQPGGSLRLSCAASGFTFSDYYMAWVRQAPGKGLEWVANINYYGSRTDLLESLKSRFTISRDNAKNSVYLQMNSLRAEDTAVYYCARDTSRGSYFDVWGAGTTVTVSS VL: VVMTQTPLSLSVSLGDQASISCKSSQSIVHYNGKTYLEWYLQKPGQSPQLLIYKVSSRFSGVPDRFSGSGSGTDFTLKISRVEAEDLGVYYCFQGSHFPLTFGQGTKLEIKR
3 |  | 240 | A16 (antibody, human IgG1, kappa, L234A L235A) light: VVMTQTPLSLSVSLGDQASISCKSSQSIVHYNEKTYLEWYLQKPGQSPQLLIYKVSSRASGVPDRFSGSGSGTDFTLKISRVEAEDLGVYYCFQGSHFPLTFGQGTKLEIKRTVAAPSVFIFPPSDEQLKSGTASVVCLLNNFYPREAKVQWKVDNALQSGNSQESVTEQDSKDSTYSLSSTLTLSKADYEKHKVYACEVTHQGLSSPVTKSFNRGEC heavy: not shown
4 |  | 170 | A19 (antibody, human IgG1, kappa, L234A L235A, V domains shown) VH: EVQLVESGGGLVQPGGSLRLSCAASGFTFSDYYMAWVRQAPGKGLEWVANINYEGSRTDLLASLKSRFTISRDNAKNSVYLQMNSLRAEDTAVYYCARDTSRGSYFDVWGAGTTVTVSS VL: VVMTQTPLSLSVSLGDQASISCKSSQSIVHYNGKTYLEWYLQKPGQSPQLLIYKVSSRFSGVPDRFSGSGSGTDFTLKISRVEAEDLGVYYCFQGSHFPLTFGQGTKLEIKR
5 |  | 180 | A20 (antibody, human IgG1, kappa, L234A L235A, V domains shown) VH: EVQLVESGGGLVQPGGSLRLSCAASGFTFSDYYMAWVRQAPGKGLEWVANINYYGSRTDLLASLKSRFTISRDNAKNSVYLQMNSLRAEDTAVYYCARDTSRGSYFDVWGAGTTVTVSS VL: VVMTQTPLSLSVSLGDQASISCKSSQSIVHYNGKTYLEWYLQKPGQSPQLLIYKVSSRFSGVPDRFSGSGSGTDFTLKISRVEAEDLGVYYCFQGSHFPLTFGQGTKLEIKR
6 |  | 200 | A17 (antibody, human IgG1, kappa, L234A L235A, V domains shown) VH: EVQLVESGGGLVQPGGSLRLSCAASGFTFSDYYMAWVRQAPGKGLEWVANINYEGSRTDLLESLKSRFTISRDNAKNSVYLQMNSLRAEDTAVYYCARDTSRGSYFDVWGAGTTVTVSS VL: VVMTQTPLSLSVSLGDQASISCKSSQSIVHYNGKTYLEWYLQKPGQSPQLLIYKVSSRFSGVPDRFSGSGSGTDFTLKISRVEAEDLGVYYCFQGSHFPLTFGQGTKLEIKR

The next lines start with the binder.

Row | Binder | binding result | Kd [pM]
7 | A33 (antibody, human IgG1, kappa, L234A L235A, V domains shown) VH: EVQLVESGGGLVQPGGSLRLSCAASGFTFSDYYMAWVRQAPGKGLEWVANINYEGSRTDLLESLKSRFTISRDNAKNSVYLQMNSLRAEDTAVYYCARDTSRGSYFDVWGAGTTVTVSS VL: VVMTQTPLSLSVSLGDQASISCKSSQSIVHYNENTYLEWYLQKPGQSPQLLIYKVSSRFSGVPDRFSGSGSGTDFTLKISRVEAEDLGVYYCFQGSHFPLTFGQGTKLEIKR | no binding | 
8 | A14 (antibody, human IgG1, kappa, L234A L235A) light: VVMTQTPLSLSVSLGDQASISCKSSQSIVHYNEKTYLEWYLQKPGQSPQLLIYKVSSRASGVPDRFSGSGSGTDFTLKISRVEAEDLGVYYCFQGSHFPLTFGQGTKLEIKRTVAAPSVFIFPPSDEQLKSGTASVVCLLNNFYPREAKVQWKVDNALQSGNSQESVTEQDSKDSTYSLSSTLTLSKADYEKHKVYACEVTHQGLSSPVTKSFNRGEC heavy: not shown |  | 220
9 | A10 (antibody, human IgG1, kappa, L234A L235A) light: VVMTQTPLSLSVSLGDQASISCKSSQSIVHYNEKTYLEWYLQKPGQSPQLLIYKVSSRASGVPDRFSGSGSGTDFTLKISRVEAEDLGVYYCFQGSHFPLTFGQGTKLEIKRTVAAPSVFIFPPSDEQLKSGTASVVCLLNNFYPREAKVQWKVDNALQSGNSQESVTEQDSKDSTYSLSSTLTLSKADYEKHKVYACEVTHQGLSSPVTKSFNRGEC heavy: not shown |  | 190
10 | A12 (antibody, human IgG1, kappa, L234A L235A) light: VVMTQTPLSLSVSLGDQASISCKSSQSIVHYNEKTYLEWYLQKPGQSPQLLIYKVSSRASGVPDRFSGSGSGTDFTLKISRVEAEDLGVYYCFQGSHFPLTFGQGTKLEIKRTVAAPSVFIFPPSDEQLKSGTASVVCLLNNFYPREAKVQWKVDNALQSGNSQESVTEQDSKDSTYSLSSTLTLSKADYEKHKVYACEVTHQGLSSPVTKSFNRGEC heavy: not shown |  | 170
11 | A3 (antibody, human IgG1, kappa, L234A L235A, V domains shown) VH: EVQLVESGGGLVQPGGSLRLSCAASGFTFSDYYMAWVRQAPGKGLEWVANINYEGSRTDLLASLKSRFTISRDNAKNSVYLQMNSLRAEDTAVYYCARDTSRGSYFDVWGAGTTVTVSS VL: VVMTQTPLSLSVSLGDQASISCKSSQSIVHYNEKTYLEWYLQKPGQSPQLLIYKVSSRFSGVPDRFSGSGSGTDFTLKISRVEAEDLGVYYCFQGSHFPLTFGQGTKLEIKR |  | 230
12 | A8 (antibody, human IgG1, kappa, L234A L235A) light: VVMTQTPLSLSVSLGDQASISCKSSQSIVHYNEKTYLEWYLQKPGQSPQLLIYKVSSRFSGVPDRFSGSGSGTDFTLKISRVEAEDLGVYYCFQGSHFPLTFGQGTKLEIKRTVAAPSVFIFPPSDEQLKSGTASVVCLLNNFYPREAKVQWKVDNALQSGNSQESVTEQDSKDSTYSLSSTLTLSKADYEKHKVYACEVTHQGLSSPVTKSFNRGEC heavy: not shown |  | 340
13 | A4 (antibody, human IgG1, kappa, L234A L235A, V domains shown) VH: EVQLVESGGGLVQPGGSLRLSCAASGFTFSDYYMAWVRQAPGKGLEWVANINYYGSRTDLLASLKSRFTISRDNAKNSVYLQMNSLRAEDTAVYYCARDTSRGSYFDVWGAGTTVTVSS VL: VVMTQTPLSLSVSLGDQASISCKSSQSIVHYNEKTYLEWYLQKPGQSPQLLIYKVSSRFSGVPDRFSGSGSGTDFTLKISRVEAEDLGVYYCFQGSHFPLTFGQGTKLEIKR |  | 220
14 | A1 (antibody, human IgG1, kappa, L234A L235A, V domains shown) VH: EVQLVESGGGLVQPGGSLRLSCAASGFTFSDYYMAWVRQAPGKGLEWVANINYEGSRTDLLESLKSRFTISRDNAKNSVYLQMNSLRAEDTAVYYCARDTSRGSYFDVWGAGTTVTVSS VL: VVMTQTPLSLSVSLGDQASISCKSSQSIVHYNEKTYLEWYLQKPGQSPQLLIYKVSSRFSGVPDRFSGSGSGTDFTLKISRVEAEDLGVYYCFQGSHFPLTFGQGTKLEIKR |  | 290
15 | A6 (antibody, human IgG1, kappa, L234A L235A, V domains shown) VH: EVQLVESGGGLVQPGGSLRLSCAASGFTFSDYYMAWVRQAPGKGLEWVANINYEGSRTDLLDSLKSRFTISRDNAKNSVYLQMNSLRAEDTAVYYCARDTSRGSYFDVWGAGTTVTVSS VL: VVMTQTPLSLSVSLGDQASISCKSSQSIVHYNEKTYLEWYLQKPGQSPQLLIYKVSSRFSGVPDRFSGSGSGTDFTLKISRVEAEDLGVYYCFQGSHFPLTFGQGTKLEIKR |  | 320
16 | A11 (antibody, human IgG1, kappa, L234A L235A) light: VVMTQTPLSLSVSLGDQASISCKSSQSIVHYNEKTYLEWYLQKPGQSPQLLIYKVSSRASGVPDRFSGSGSGTDFTLKISRVEAEDLGVYYCFQGSHFPLTFGQGTKLEIKRTVAAPSVFIFPPSDEQLKSGTASVVCLLNNFYPREAKVQWKVDNALQSGNSQESVTEQDSKDSTYSLSSTLTLSKADYEKHKVYACEVTHQGLSSPVTKSFNRGEC heavy: not shown |  | 170
17 | A5 (antibody, human IgG1, kappa, L234A L235A) light: VVMTQTPLSLSVSLGDQASISCKSSQSIVHYNEKTYLEWYLQKPGQSPQLLIYKVSSRFSGVPDRFSGSGSGTDFTLKISRVEAEDLGVYYCFQGSHFPLTFGQGTKLEIKRTVAAPSVFIFPPSDEQLKSGTASVVCLLNNFYPREAKVQWKVDNALQSGNSQESVTEQDSKDSTYSLSSTLTLSKADYEKHKVYACEVTHQGLSSPVTKSFNRGEC heavy: not shown |  | 320
18 | A15 (antibody, human IgG1, kappa, L234A L235A) light: VVMTQTPLSLSVSLGDQASISCKSSQSIVHYNEKTYLEWYLQKPGQSPQLLIYKVSSRASGVPDRFSGSGSGTDFTLKISRVEAEDLGVYYCFQGSHFPLTFGQGTKLEIKRTVAAPSVFIFPPSDEQLKSGTASVVCLLNNFYPREAKVQWKVDNALQSGNSQESVTEQDSKDSTYSLSSTLTLSKADYEKHKVYACEVTHQGLSSPVTKSFNRGEC heavy: not shown |  | 260
19 | A2 (antibody, human IgG1, kappa, L234A L235A, V domains shown) VH: EVQLVESGGGLVQPGGSLRLSCAASGFTFSDYYMAWVRQAPGKGLEWVANINYYGSRTDLLESLKSRFTISRDNAKNSVYLQMNSLRAEDTAVYYCARDTSRGSYFDVWGAGTTVTVSS VL: VVMTQTPLSLSVSLGDQASISCKSSQSIVHYNEKTYLEWYLQKPGQSPQLLIYKVSSRFSGVPDRFSGSGSGTDFTLKISRVEAEDLGVYYCFQGSHFPLTFGQGTKLEIKR |  | 250
20 | A9 (antibody, human IgG1, kappa, L234A L235A) light: VVMTQTPLSLSVSLGDQASISCKSSQSIVHYNEKTYLEWYLQKPGQSPQLLIYKVSSRASGVPDRFSGSGSGTDFTLKISRVEAEDLGVYYCFQGSHFPLTFGQGTKLEIKRTVAAPSVFIFPPSDEQLKSGTASVVCLLNNFYPREAKVQWKVDNALQSGNSQESVTEQDSKDSTYSLSSTLTLSKADYEKHKVYACEVTHQGLSSPVTKSFNRGEC heavy: not shown |  | 210
21 | A7 (antibody, human IgG1, kappa, L234A L235A, V domains shown) VH: EVQLVESGGGLVQPGGSLRLSCAASGFTFSDYYMAWVRQAPGKGLEWVANINYDGSRTDLLESLKSRFTISRDNAKNSVYLQMNSLRAEDTAVYYCARDTSRGSYFDVWGAGTTVTVSS VL: VVMTQTPLSLSVSLGDQASISCKSSQSIVHYNEKTYLEWYLQKPGQSPQLLIYKVSSRFSGVPDRFSGSGSGTDFTLKISRVEAEDLGVYYCFQGSHFPLTFGQGTKLEIKR |  | 330
